In publication PMC3098264, “Crystal Structure of the PAC1R Extracellular Domain Unifies a Consensus Fold for Hormone Recognition by Class B G-Protein Coupled Receptors” (PLoS ONE, 2011):

B1: un-labeled PACAP (15–31) [not stated] / MBP-PAC1R (25–140)-His6 [human] (parent complex)
chain 1: KQMAVKKYLAAVLGKRY
chain 2: CIFKKEQAMCLEKIQRANELMGFNDSSPGCPGMWDNITCWKPAHVGEMVLVSCPELFRIFNPDQDMGVVSRNCTEDGWSEPFPHYFDACGFDEYESETGDQDYYYLSVKALYTVGY

Variants of: B1
Experiment: competitive AlphaScreen; Competing peptide 150uM; residual signal after competition, higher counts = weaker competition by the mutant peptide; read off a plot

Variant	response
chain 1 KQMAVKKYLAAVLGKRA [chain 1 Y17A]	~2700 Photon Counts
chain 1 KQMAAKKYLAAVLGKRY [chain 1 V5A]	~17000 Photon Counts
chain 1 AQMAVKKYLAAVLGKRY [chain 1 K1A]	~1800 Photon Counts
chain 1 KQAAVKKYLAAVLGKRY [chain 1 M3A]	~5100 Photon Counts
chain 1 KQMAVKKYLAAVAGKRY [chain 1 L13A]	~26000 Photon Counts
chain 1 KQMAVAKYLAAVLGKRY [chain 1 K6A]	~34000 Photon Counts
chain 1 KQMAVKAYLAAVLGKRY [chain 1 K7A]	~2900 Photon Counts

Results, then the variant that gave them:

response	Variant
~3800 Photon Counts	chain 1 KQMAVKKYLAAVLGARY [chain 1 K15A]
~2700 Photon Counts	chain 1 KQMAVKKYLAAVLGKAY [chain 1 R16A]
~1500 Photon Counts	chain 1 KQMAVKKALAAVLGKRY [chain 1 Y8A]
~1900 Photon Counts	chain 1 KAMAVKKYLAAVLGKRY [chain 1 Q2A]
~6300 Photon Counts	chain 1 KQMAVKKYLAAALGKRY [chain 1 V12A]
~1100 Photon Counts	chain 1 KQMAVKKYAAAVLGKRY [chain 1 L9A]
